The record followed here is US20240115721A1 (Memorial Sloan Kettering, published 2024).

T1: endogenous human DLL3 on NCI-H82 cells (human, UniProt Q9NYJ7 27-618)
T1 sequence (looked up): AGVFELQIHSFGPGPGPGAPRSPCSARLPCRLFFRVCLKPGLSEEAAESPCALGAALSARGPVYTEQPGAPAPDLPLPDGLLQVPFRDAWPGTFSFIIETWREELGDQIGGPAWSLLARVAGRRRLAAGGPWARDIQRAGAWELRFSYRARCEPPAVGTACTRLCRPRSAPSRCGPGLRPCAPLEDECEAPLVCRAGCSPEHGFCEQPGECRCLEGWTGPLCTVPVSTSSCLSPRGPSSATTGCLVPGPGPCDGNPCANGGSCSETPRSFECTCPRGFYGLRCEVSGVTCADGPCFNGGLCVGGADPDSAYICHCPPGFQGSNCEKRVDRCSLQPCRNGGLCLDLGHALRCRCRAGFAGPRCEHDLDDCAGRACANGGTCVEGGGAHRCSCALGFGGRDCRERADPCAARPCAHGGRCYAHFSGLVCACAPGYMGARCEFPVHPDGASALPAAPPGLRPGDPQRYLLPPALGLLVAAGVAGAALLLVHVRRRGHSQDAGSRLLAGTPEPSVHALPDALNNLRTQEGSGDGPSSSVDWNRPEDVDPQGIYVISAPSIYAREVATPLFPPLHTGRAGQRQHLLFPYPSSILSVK

T2: full-length human DLL3 on transfected HEK293 cells (human, UniProt Q9NYJ7 27-618)
T2 construct: also called 293 hDLL3
T2 sequence: T1 sequence (looked up)

T3: full-length mouse DLL3 on transfected HEK293 cells (mouse, UniProt O88516 33-584)
T3 construct: also called 293 mDLL3
T3 sequence: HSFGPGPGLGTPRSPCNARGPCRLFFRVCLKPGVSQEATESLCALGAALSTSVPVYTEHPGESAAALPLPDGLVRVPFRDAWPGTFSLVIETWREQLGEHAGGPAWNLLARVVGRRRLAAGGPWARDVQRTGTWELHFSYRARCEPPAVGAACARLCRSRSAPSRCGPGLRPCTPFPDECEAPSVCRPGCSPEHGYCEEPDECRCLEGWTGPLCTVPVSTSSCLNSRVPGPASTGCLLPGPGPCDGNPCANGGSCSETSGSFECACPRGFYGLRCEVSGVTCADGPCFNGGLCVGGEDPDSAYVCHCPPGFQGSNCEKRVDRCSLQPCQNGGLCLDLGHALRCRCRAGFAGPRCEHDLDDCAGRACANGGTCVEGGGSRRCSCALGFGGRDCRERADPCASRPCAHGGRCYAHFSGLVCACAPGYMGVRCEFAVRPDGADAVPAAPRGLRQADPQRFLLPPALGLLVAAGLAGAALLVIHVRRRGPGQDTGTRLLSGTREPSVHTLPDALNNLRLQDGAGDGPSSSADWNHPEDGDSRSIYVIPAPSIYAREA

B1: 2-C8-A (antibody, V domains shown)
VH: EVQLVESGGGLVQPGGSQRLSCAASGFTFSSYWMNWVRQAPGKGLEWVANIKEDGSEKYYVDSVKGRFTISRDNAKNSLYLQMNSLRAEDTAVYYCARDPGWAPFDYWGQGTLVTVSS
VL: DIQMSQSPSSLSASVGDRVTITCRASQGISNYLAWFQQKPGKAPKSLIYAASSLQSGVPSKFSGSGSGTDFTLAISSLQPEDFATYYCQQYNSFPYTFGQGTTLEIK
notes: Hybridoma monoclonal from Ablexis AlivaMAb Kappa mice; captured and detected with anti-mouse Fc / anti-mouse IgG reagents; It is not the recombinant human IgG1 form H2-C8-A; also called 2-C8-A (10 µg/ml)
B2: 7-I1-B (antibody, V domains shown)
VH: EVQLVESGGGLVKPGGSLRLSCAASGFTFSNTWMSWVRQAPGKGLEWVGRIKSKSDGGTTDYAAPVKGRFTISRDDSKNTLYLQMNSLKTEDTAVYYCTQYYWNSFDYWGQGTLVTVSS
VL: not shown
notes: Hybridoma monoclonal from Ablexis AlivaMAb Kappa mice; captured and detected with anti-mouse Fc / anti-mouse IgG reagents; also called 7-I1-B (10 µg/ml)
B3: 6-G23-F (antibody, V domains shown)
VH: QVQLVQSGAEVKKPGASVKVSCKASGYTFTSYYIHWVRQAPGQGLEWMGIIDPSDGSTNYAQKFQGRVTMTRDTSTSTVYMELSSLRSEDTAVYYCARDREYNYYGLDVWGQGTTVTVSS
VL: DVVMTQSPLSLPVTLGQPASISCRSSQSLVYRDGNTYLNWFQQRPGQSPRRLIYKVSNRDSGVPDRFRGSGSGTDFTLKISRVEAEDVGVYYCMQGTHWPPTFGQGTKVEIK
notes: Hybridoma monoclonal from Ablexis AlivaMAb Kappa mice (human immunoglobulin repertoire); the antibody was captured on anti-mouse Fc sensors and detected with anti-mouse IgG / anti-mouse IgG1 reagents; It is not the recombinant human IgG1 form H6-G23-F; also called 6-G23-F (10 µg/ml)
B4: 10-O18-A (antibody, V domains shown)
VH: QVQLQESGPGLVKPSETLSLTCTVSGGSINSYYWSWIRQPPGKGLEWIGYIFYSGITNYNPSLKSRVTISLDTSKNQFSLKLSSVTAADTAVYYCARIGVAGFYFDYWGQGTLVTVSS
VL: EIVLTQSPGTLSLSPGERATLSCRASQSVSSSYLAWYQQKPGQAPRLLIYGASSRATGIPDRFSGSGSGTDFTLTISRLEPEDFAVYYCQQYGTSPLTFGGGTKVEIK
notes: Hybridoma monoclonal from Ablexis AlivaMAb Kappa mice; captured and detected with anti-mouse Fc / anti-mouse IgG reagents; It is not the recombinant human IgG1 form H10-O18-A; also called 10-O18-A (10 µg/ml)

The target of one test is T1, endogenous human DLL3 on NCI-H82 cells. Kind of test: cell-based or functional assay.
On to B1, for which the “MFI Ratio (4° C. plate / 37° C. plate), 4/37 internalization assay on NCI-H82 cells” value turned out to be 1.76.
Still for that read-out and setting: for B2 the value was 1.68.
The same measure, in the same setting: for B3 the value was 1.67; for B4, 1.56.

The target is the same in the next test. Briefly: cell-based or functional assay. This is another data set of the same source.
As to B1, the “FAB ZAP % SC16 Max Killing, NCI-H82 cells” value worked out at 89%.
On the same count and under the same terms, for B2 the value was 97%; for B3, 94%.

The next test concerns the target T2, full-length human DLL3 on transfected …. Briefly: flow cytometry, HEK293 cells transfected with full-length human DLL3, mAb 10 µg/ml. The method, then: (§1) The four monoclonal antibodies (6-G23-F, 2-C8-A, 7-I1-B and 10-O18-A) were tested for their ability to bind to mouse and cynomolgous DLL3 as well as endogenous human DLL3 by flow cytometry. For this purpose, HEK293 cells were transfected with plasmid DNA encoding full-length human, mouse or cynomolgous DLL3 and used in the experiment. Briefly 106 transfected HEK293 cells or NCI-H82 primary cells were added in FACS buffer PBS 0.5% BSA to the wells of a 96 well U bottom plate and purified monoclonal added to 10 μg/ml. After 30 minutes incubation at 4° C. the cells were washed 3 times in FACS buffer and incubated with a PE labelled F(ab)2 anti-mouse IgG H and L 2nd stage. After another 30 minutes incubation at 4° C. the cells were washed three times in FACS buffer and analyzed on the flow cytometer. Data are presented at the ratio of the Mean Fluorescent Intensity for the monoclonal divided by the background staining with the 2nd stage. As shown in the Table below, all of the monoclonal antibodies cross reacted with cynomolgous DLL3 and detected endogenous DLL3 on NCI H82 cells but only 6-G23-F and 7-I1-B bound to mouse DLL3.
For orientation: Flow cytometry measures light scatter and fluorescence of single cells or particles in a stream.
Turning to B1, the “ratio of Mean Fluorescent Intensity (monoclonal / background staining with 2nd stage)” value worked out at 7.71.
On the same count and under the same terms, the figure for B2 is 9.74; for B3 it is 6.33.
On the same count and under the same terms, for B4 the value was 4.74.

The target of another test is T1, endogenous human DLL3 on NCI-H82 cells. Briefly: flow cytometry, NCI-H82 cells (endogenous DLL3), mAb 10 µg/ml. Here is the method: as §1
Consider B1, for which the “ratio of Mean Fluorescent Intensity (monoclonal / background staining with 2nd stage)” value is 11.9.
For B2, the “ratio of Mean Fluorescent Intensity (monoclonal / background staining with 2nd stage)” value worked out at 19.2.
Consider B3, for which the “ratio of Mean Fluorescent Intensity (monoclonal / background staining with 2nd stage)” value is 11.1.
Same read-out and setting: for B4 the value was 9.4.

Another test shares this target. Briefly: cell-based or functional assay. The source holds these as a separate data set.
For B1, the “Dy light Dy658 Fluorescence (% of the Control Reference Monoclonal Antibody), quenching internalization assay on NCI-H82 cells” value was 62.9%.
The same measure, in the same setting: the figure for B2 is 70.1%; for B3 it is 76.5%.

The target of a further test is T4, full-length cynomolgous DLL3 on transfected HEK293 cells (cynomolgous).
T4 construct: whole, on cells; also called 293 cyno DLL3
Kind of test: flow cytometry, HEK293 cells transfected with full-length cynomolgous DLL3, mAb 10 µg/ml. The method, then: as §1
With B1, the “ratio of Mean Fluorescent Intensity (monoclonal / background staining with 2nd stage)” value turned out to be 15.
Regarding B2, the “ratio of Mean Fluorescent Intensity (monoclonal / background staining with 2nd stage)” value came out at 18.7.
Same read-out and setting: the figure for B3 is 13.1.
Still for that read-out and setting: for B4 the value was 9.85.

The target in a further test is T3, full-length mouse DLL3 on transfected …. Kind of test: flow cytometry, HEK293 cells transfected with full-length mouse DLL3, mAb 10 µg/ml. Here is the method:
as §1
As for B1, the “ratio of Mean Fluorescent Intensity (monoclonal / background staining with 2nd stage)” value was 1.5.
The same measure, in the same setting: for B2 the value was 4.7.
With B3, the “ratio of Mean Fluorescent Intensity (monoclonal / background staining with 2nd stage)” value worked out at 3.97.
On the same count and under the same terms, for B4 the value was 0.99.
